The target of the assay is AM receptor expressed in a cultured cell line (HEK293 cell line). Put plainly: cell-based or functional assay.
“amidated compound of Example 7: (IgG1 Fc Region)+(Linker S)+(AM (11-52)-Gly), amidated (Fc fusion)” came in with a Relative activity (%) (vs. hAM), intracellular cAMP, compound at 10^-6 M of 68%.
To “amidated compound of Example 9: (IgG4 Fc Region)+(Linker S)+(AM (6-52)-Gly), amidated (Fc fusion)” belongs 54%.
To “amidated compound of Example 3: (IgG4 Fc Region)+(Linker S)+(AM-Gly), amidated (Fc fusion)” belongs 27%; to “amidated compound of Example 12: (IgG4 Fc Region)+(Linker K)+(AM (11-52)-Gly), amidated (Fc fusion)”, 48%.
Under “amidated compound of Example 8: (IgG1 Fc Region)+(Linker K)+(AM (11-52)-Gly), amidated (Fc fusion)” stands 48%.
“amidated compound of Example 1: (IgG1 Fc Region)+(Linker S)+(AM-Gly), amidated (Fc fusion)” showed a Relative activity (%) (vs. hAM), intracellular cAMP, compound at 10^-6 M of 27%.
To “amidated compound of Example 10: (IgG4 Fc Region)+(Linker K)+(AM (6-52)-Gly), amidated (Fc fusion)” belongs 39%.
To “amidated compound of Example 5: (IgG1 Fc Region)+(Linker S)+(AM (6-52)-Gly), amidated (Fc fusion)” belongs 88%; to “amidated compound of Example 11: (IgG4 Fc Region)+(Linker S)+(AM (11-52)-Gly), amidated (Fc fusion)”, 36%; to “amidated compound of Example 6: (IgG1 Fc Region)+(Linker K)+(AM (6-52)-Gly), amidated (Fc fusion)”, 70%.
To “amidated compound of Example 2: (IgG1 Fc Region)+(Linker K)+(AM-Gly), amidated (Fc fusion)” belongs 11%.
Substance “amidated compound of Example 4: (IgG4 Fc Region)+(Linker K)+(AM-Gly), amidated (Fc fusion)” came in with a Relative activity (%) (vs. hAM), intracellular cAMP, compound at 10^-6 M of 49%.
